Reference: patent US20140087995A1 (published 2014)
Numbered stars: 1 amine (or outer) side, 2 acyl side, 3 side chain; on linkers, the order of the positions; unused ones are H or OH. Bridge positions count the residues as written; N and C are the ends. Side chains are listed from the residue outwards. Ends that are not written are not given here. * marks the point of attachment. C20 diacid = O=C(O)CCCCCCCCCCCCCCCCCCC(=O)*; γGlu = O=C(O)[C@H](CCC(=O)[*:2])N[*:1]; AEEA = NCCOCCOCC(=O)O

T1: human amylin receptor (amylin 3(a) receptor: human calcitonin receptor plus RAMP-3) (human, UniProt P30988 25-474; O60896 24-148, limits assumed)
T1 sequence (looked up) 1: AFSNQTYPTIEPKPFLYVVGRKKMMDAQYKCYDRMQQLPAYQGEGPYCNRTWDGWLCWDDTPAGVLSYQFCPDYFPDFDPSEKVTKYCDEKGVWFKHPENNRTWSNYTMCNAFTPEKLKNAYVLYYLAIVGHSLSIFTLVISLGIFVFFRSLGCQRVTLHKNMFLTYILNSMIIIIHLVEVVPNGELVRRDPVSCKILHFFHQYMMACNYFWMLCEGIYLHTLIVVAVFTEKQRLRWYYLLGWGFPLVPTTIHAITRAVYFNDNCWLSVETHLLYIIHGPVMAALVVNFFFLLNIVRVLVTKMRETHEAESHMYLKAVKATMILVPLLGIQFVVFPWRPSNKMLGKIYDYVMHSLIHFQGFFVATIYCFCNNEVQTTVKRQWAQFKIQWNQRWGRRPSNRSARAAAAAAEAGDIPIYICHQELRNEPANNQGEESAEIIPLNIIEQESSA
T1 sequence (looked up) 2: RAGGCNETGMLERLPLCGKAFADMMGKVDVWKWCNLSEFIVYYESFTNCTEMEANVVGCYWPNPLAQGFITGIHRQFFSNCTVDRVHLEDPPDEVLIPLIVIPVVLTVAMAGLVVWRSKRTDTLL

T2: human calcitonin receptor (human, UniProt P30988 25-474)
T2 sequence (looked up): T1 sequence (looked up) 1

B1: N^α1-[(4S)-4-carboxy-4-(19-carboxynonadecanoylamino)butanoyl]-[Glu14,Arg17,Pro21,Pro27,Pro31]-h-amylin (peptide)
peptide: {C20 diacid-γGlu}-KCNTATCATQRLAEFLRHSSPNFGAIPSSTPVGSNTY-NH2
modifications: disulfide 2-7
SMILES: CC[C@H](C)[C@H](NC(=O)[C@H](C)NC(=O)CNC(=O)[C@H](Cc1ccccc1)NC(=O)[C@H](CC(N)=O)NC(=O)[C@@H]1CCCN1C(=O)[C@H](CO)NC(=O)[C@H](CO)NC(=O)[C@H](Cc1c[nH]cn1)NC(=O)[C@H](CCCNC(=N)N)NC(=O)[C@H](CC(C)C)NC(=O)[C@H](Cc1ccccc1)NC(=O)[C@H](CCC(=O)O)NC(=O)[C@H](C)NC(=O)[C@H](CC(C)C)NC(=O)[C@H](CCCNC(=N)N)NC(=O)[C@H](CCC(N)=O)NC(=O)[C@@H](NC(=O)[C@H](C)NC(=O)[C@@H]1CSSC[C@H](NC(=O)[C@H](CCCCN)NC(=O)CC[C@H](NC(=O)CCCCCCCCCCCCCCCCCCC(=O)O)C(=O)O)C(=O)N[C@@H](CC(N)=O)C(=O)N[C@@H]([C@@H](C)O)C(=O)N[C@@H](C)C(=O)N[C@@H]([C@@H](C)O)C(=O)N1)[C@@H](C)O)C(=O)N1CCC[C@H]1C(=O)N[C@@H](CO)C(=O)N[C@@H](CO)C(=O)N[C@H](C(=O)N1CCC[C@H]1C(=O)N[C@H](C(=O)NCC(=O)N[C@@H](CO)C(=O)N[C@@H](CC(N)=O)C(=O)N[C@H](C(=O)N[C@@H](Cc1ccc(O)cc1)C(N)=O)[C@@H](C)O)C(C)C)[C@@H](C)O
notes: also called compound 31
B2: N^α1-[(4S)-4-carboxy-4-(19-carboxynonadecanoylamino)butanoyl]-[His14,Arg17,Pro21,Pro27,Glu35]-h-amylin (peptide)
peptide: {C20 diacid-γGlu}-KCNTATCATQRLAHFLRHSSPNFGAIPSSTNVGSETY-NH2
modifications: disulfide 2-7
SMILES: CC[C@H](C)[C@H](NC(=O)[C@H](C)NC(=O)CNC(=O)[C@H](Cc1ccccc1)NC(=O)[C@H](CC(N)=O)NC(=O)[C@@H]1CCCN1C(=O)[C@H](CO)NC(=O)[C@H](CO)NC(=O)[C@H](Cc1c[nH]cn1)NC(=O)[C@H](CCCNC(=N)N)NC(=O)[C@H](CC(C)C)NC(=O)[C@H](Cc1ccccc1)NC(=O)[C@H](Cc1c[nH]cn1)NC(=O)[C@H](C)NC(=O)[C@H](CC(C)C)NC(=O)[C@H](CCCNC(=N)N)NC(=O)[C@H](CCC(N)=O)NC(=O)[C@@H](NC(=O)[C@H](C)NC(=O)[C@@H]1CSSC[C@H](NC(=O)[C@H](CCCCN)NC(=O)CC[C@H](NC(=O)CCCCCCCCCCCCCCCCCCC(=O)O)C(=O)O)C(=O)N[C@@H](CC(N)=O)C(=O)N[C@@H]([C@@H](C)O)C(=O)N[C@@H](C)C(=O)N[C@@H]([C@@H](C)O)C(=O)N1)[C@@H](C)O)C(=O)N1CCC[C@H]1C(=O)N[C@@H](CO)C(=O)N[C@@H](CO)C(=O)N[C@H](C(=O)N[C@@H](CC(N)=O)C(=O)N[C@H](C(=O)NCC(=O)N[C@@H](CO)C(=O)N[C@@H](CCC(=O)O)C(=O)N[C@H](C(=O)N[C@@H](Cc1ccc(O)cc1)C(N)=O)[C@@H](C)O)C(C)C)[C@@H](C)O
notes: also called compound 30
B3: N^ε1-[2-[2-[2-(19-carboxynonadecanoylamino)ethoxy]ethoxy]acetyl]-[Arg17,Pro21,Pro27]-h-amylin (peptide)
peptide: K([AEEA-C20 diacid])CNTATCATQRLANFLRHSSPNFGAIPSSTNVGSNTY-NH2
modifications: disulfide 2-7; N-terminus assumed
SMILES: CC[C@H](C)[C@H](NC(=O)[C@H](C)NC(=O)CNC(=O)[C@H](Cc1ccccc1)NC(=O)[C@H](CC(N)=O)NC(=O)[C@@H]1CCCN1C(=O)[C@H](CO)NC(=O)[C@H](CO)NC(=O)[C@H](Cc1c[nH]cn1)NC(=O)[C@H](CCCNC(=N)N)NC(=O)[C@H](CC(C)C)NC(=O)[C@H](Cc1ccccc1)NC(=O)[C@H](CC(N)=O)NC(=O)[C@H](C)NC(=O)[C@H](CC(C)C)NC(=O)[C@H](CCCNC(=N)N)NC(=O)[C@H](CCC(N)=O)NC(=O)[C@@H](NC(=O)[C@H](C)NC(=O)[C@@H]1CSSC[C@H](NC(=O)[C@@H](N)CCCCNC(=O)COCCOCCNC(=O)CCCCCCCCCCCCCCCCCCC(=O)O)C(=O)N[C@@H](CC(N)=O)C(=O)N[C@@H]([C@@H](C)O)C(=O)N[C@@H](C)C(=O)N[C@@H]([C@@H](C)O)C(=O)N1)[C@@H](C)O)C(=O)N1CCC[C@H]1C(=O)N[C@@H](CO)C(=O)N[C@@H](CO)C(=O)N[C@H](C(=O)N[C@@H](CC(N)=O)C(=O)N[C@H](C(=O)NCC(=O)N[C@@H](CO)C(=O)N[C@@H](CC(N)=O)C(=O)N[C@H](C(=O)N[C@@H](Cc1ccc(O)cc1)C(N)=O)[C@@H](C)O)C(C)C)[C@@H](C)O
notes: also called compound 43
B4: N^ε1-[2-[2-[2-[[2-[2-[2-[[(4S)-4-carboxy-4-(19-carboxynonadecanoylamino)butanoyl]amino]ethoxy]ethoxy]acetyl]amino]ethoxy]ethoxy]acetyl]-[Arg17,Pro21,Pro27,Glu35 … (peptide)
peptide: K([AEEA-AEEA-γGlu-C20 diacid])CNTATCATQRLANFLRHSSPNFGAIPSSTNVGSETY-NH2
modifications: disulfide 2-7; N-terminus assumed
SMILES: CC[C@H](C)[C@H](NC(=O)[C@H](C)NC(=O)CNC(=O)[C@H](Cc1ccccc1)NC(=O)[C@H](CC(N)=O)NC(=O)[C@@H]1CCCN1C(=O)[C@H](CO)NC(=O)[C@H](CO)NC(=O)[C@H](Cc1c[nH]cn1)NC(=O)[C@H](CCCNC(=N)N)NC(=O)[C@H](CC(C)C)NC(=O)[C@H](Cc1ccccc1)NC(=O)[C@H](CC(N)=O)NC(=O)[C@H](C)NC(=O)[C@H](CC(C)C)NC(=O)[C@H](CCCNC(=N)N)NC(=O)[C@H](CCC(N)=O)NC(=O)[C@@H](NC(=O)[C@H](C)NC(=O)[C@@H]1CSSC[C@H](NC(=O)[C@@H](N)CCCCNC(=O)COCCOCCNC(=O)COCCOCCNC(=O)CC[C@H](NC(=O)CCCCCCCCCCCCCCCCCCC(=O)O)C(=O)O)C(=O)N[C@@H](CC(N)=O)C(=O)N[C@@H]([C@@H](C)O)C(=O)N[C@@H](C)C(=O)N[C@@H]([C@@H](C)O)C(=O)N1)[C@@H](C)O)C(=O)N1CCC[C@H]1C(=O)N[C@@H](CO)C(=O)N[C@@H](CO)C(=O)N[C@H](C(=O)N[C@@H](CC(N)=O)C(=O)N[C@H](C(=O)NCC(=O)N[C@@H](CO)C(=O)N[C@@H](CCC(=O)O)C(=O)N[C@H](C(=O)N[C@@H](Cc1ccc(O)cc1)C(N)=O)[C@@H](C)O)C(C)C)[C@@H](C)O
notes: also called compound 25
B5: N^ε1-[2-[2-[2-[[(4S)-4-carboxy-4-(19-carboxynonadecanoylamino)butanoyl]amino]ethoxy]ethoxy]acetyl]-[Arg17,Pro21,Pro27,Glu35]-h-amylin (peptide)
peptide: K([AEEA-γGlu-C20 diacid])CNTATCATQRLANFLRHSSPNFGAIPSSTNVGSETY-NH2
modifications: disulfide 2-7; N-terminus assumed
SMILES: CC[C@H](C)[C@H](NC(=O)[C@H](C)NC(=O)CNC(=O)[C@H](Cc1ccccc1)NC(=O)[C@H](CC(N)=O)NC(=O)[C@@H]1CCCN1C(=O)[C@H](CO)NC(=O)[C@H](CO)NC(=O)[C@H](Cc1c[nH]cn1)NC(=O)[C@H](CCCNC(=N)N)NC(=O)[C@H](CC(C)C)NC(=O)[C@H](Cc1ccccc1)NC(=O)[C@H](CC(N)=O)NC(=O)[C@H](C)NC(=O)[C@H](CC(C)C)NC(=O)[C@H](CCCNC(=N)N)NC(=O)[C@H](CCC(N)=O)NC(=O)[C@@H](NC(=O)[C@H](C)NC(=O)[C@@H]1CSSC[C@H](NC(=O)[C@@H](N)CCCCNC(=O)COCCOCCNC(=O)CC[C@H](NC(=O)CCCCCCCCCCCCCCCCCCC(=O)O)C(=O)O)C(=O)N[C@@H](CC(N)=O)C(=O)N[C@@H]([C@@H](C)O)C(=O)N[C@@H](C)C(=O)N[C@@H]([C@@H](C)O)C(=O)N1)[C@@H](C)O)C(=O)N1CCC[C@H]1C(=O)N[C@@H](CO)C(=O)N[C@@H](CO)C(=O)N[C@H](C(=O)N[C@@H](CC(N)=O)C(=O)N[C@H](C(=O)NCC(=O)N[C@@H](CO)C(=O)N[C@@H](CCC(=O)O)C(=O)N[C@H](C(=O)N[C@@H](Cc1ccc(O)cc1)C(N)=O)[C@@H](C)O)C(C)C)[C@@H](C)O
notes: also called compound 26
B6: N^ε1-[2-[2-[2-[[(4S)-4-carboxy-4-(19-carboxynonadecanoylamino)butanoyl]amino]ethoxy]ethoxy]acetyl]-[Arg17,Pro21,Pro27]-h-amylin (peptide)
peptide: K([AEEA-γGlu-C20 diacid])CNTATCATQRLANFLRHSSPNFGAIPSSTNVGSNTY-NH2
modifications: disulfide 2-7; N-terminus assumed
SMILES: CC[C@H](C)[C@H](NC(=O)[C@H](C)NC(=O)CNC(=O)[C@H](Cc1ccccc1)NC(=O)[C@H](CC(N)=O)NC(=O)[C@@H]1CCCN1C(=O)[C@H](CO)NC(=O)[C@H](CO)NC(=O)[C@H](Cc1c[nH]cn1)NC(=O)[C@H](CCCNC(=N)N)NC(=O)[C@H](CC(C)C)NC(=O)[C@H](Cc1ccccc1)NC(=O)[C@H](CC(N)=O)NC(=O)[C@H](C)NC(=O)[C@H](CC(C)C)NC(=O)[C@H](CCCNC(=N)N)NC(=O)[C@H](CCC(N)=O)NC(=O)[C@@H](NC(=O)[C@H](C)NC(=O)[C@@H]1CSSC[C@H](NC(=O)[C@@H](N)CCCCNC(=O)COCCOCCNC(=O)CC[C@H](NC(=O)CCCCCCCCCCCCCCCCCCC(=O)O)C(=O)O)C(=O)N[C@@H](CC(N)=O)C(=O)N[C@@H]([C@@H](C)O)C(=O)N[C@@H](C)C(=O)N[C@@H]([C@@H](C)O)C(=O)N1)[C@@H](C)O)C(=O)N1CCC[C@H]1C(=O)N[C@@H](CO)C(=O)N[C@@H](CO)C(=O)N[C@H](C(=O)N[C@@H](CC(N)=O)C(=O)N[C@H](C(=O)NCC(=O)N[C@@H](CO)C(=O)N[C@@H](CC(N)=O)C(=O)N[C@H](C(=O)N[C@@H](Cc1ccc(O)cc1)C(N)=O)[C@@H](C)O)C(C)C)[C@@H](C)O
notes: also called compound 41

target: T1, human amylin receptor (amylin 3(a) …); assay: cell-based or functional assay

B1 and B2 are within 1.5-fold of each other in “hAmylin-R funct. EC50” value: 0.112 nM for the first, 0.134 nM for the second.

Compared with B3, B4 is 1.5-fold higher in “hAmylin-R funct. EC50” value: 0.141 nM for the first, 0.217 nM for the second.

B5 and B6 are within 1.5-fold of each other in “hAmylin-R funct. EC50” value: 0.212 nM for the first, 0.26 nM for the second.

target: T2, human calcitonin receptor; assay: cell-based or functional assay

Going from B1 to B3, the “Ratio hCT/hAmylin funct. (hCTR EC50 against hAmylin-R EC50)” value rises from 6.4 to 6.5.

Going from B4 to B5, the “Ratio hCT/hAmylin funct. (hCTR EC50 against hAmylin-R EC50)” value falls from 46.2 to 29.9.

In the case of B6, the “Ratio hCT/hAmylin funct. (hCTR EC50 against hAmylin-R EC50)” value is reported as 16.7.

Going from B1 to B2, the “hCTR funct. EC50” value rises from 0.717 nM to 1.68 nM (2.3-fold).

Compared with B3, B4 is 11-fold higher in “hCTR funct. EC50” value: 0.92 nM for the first, 10 nM for the second.

B5 and B6 are within 1.5-fold of each other in “hCTR funct. EC50” value: 6.34 nM for the first, 4.35 nM for the second.
